In paper PMC7058304 (PLoS ONE, 2020):

Tests used:
Settings in all cases: both partners purified
[1] = target: T1, Recombinant purified human PD-1 protein, residues Leu25-Thr168, with a C-terminal 6-His tag (human, UniProt Q15116); test: SPR; Carterra LSA, CMD-P (flat) chip; mAbs captured on goat anti-human IgG Fc in a 384-spot array; PD-1-His analyte 0.5-1000 nM, 5 min association, 20 min dissociation; HBS-ET + 0.5 mg/ml BSA; 1:1 Langmuir fit; mean of spots; apparent
T1 construct: programmed cell death protein 1 (PD-1), human, residues Leu25-Thr168; monomer; the results call it wild-type or full length PD-1 against the P35-Q167 fragment; also called PD-1-His; PD-1 His-tagged monomer; source: bought: R&D Systems; not shown: His6, C-terminal, kept
T1 sequence (Q15116 25-168): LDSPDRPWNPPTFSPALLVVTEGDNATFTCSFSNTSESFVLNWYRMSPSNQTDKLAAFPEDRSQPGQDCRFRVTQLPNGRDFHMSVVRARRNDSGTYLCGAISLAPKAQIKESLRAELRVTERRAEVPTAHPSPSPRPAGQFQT

[2] = target: T2, biotinylated His-tagged PD-1 (Homo sapiens, UniProt Q15116, biotin); test: MSD solution equilibrium titration; 100 pM biotinylated His-tagged PD-1 titrated with mAb (top 100, 50 or 10 nM binding sites), 18 h at room temperature; free antigen captured on mAb-coated MSD plates; relative KD
T2 construct: PD-1, His-tagged, biotinylated, used in the MSD experiments; probably the R&D Systems Leu25-Thr168 protein after biotinylation
T2 sequence (Q15116 whole entry, looked up, tested part not stated): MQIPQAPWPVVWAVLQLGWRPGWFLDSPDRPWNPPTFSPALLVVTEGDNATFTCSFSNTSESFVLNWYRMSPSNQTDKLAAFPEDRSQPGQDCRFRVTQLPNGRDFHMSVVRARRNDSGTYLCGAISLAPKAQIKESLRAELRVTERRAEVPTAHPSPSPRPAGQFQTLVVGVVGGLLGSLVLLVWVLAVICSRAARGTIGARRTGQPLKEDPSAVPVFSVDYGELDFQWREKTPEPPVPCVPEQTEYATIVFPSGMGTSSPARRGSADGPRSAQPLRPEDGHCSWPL

[3] = target: T1, Recombinant purified human PD-1 …; test: KinExA equilibrium; fixed mAb orientation: PD-1-His monomer titrated (0.1 pM-1.2 uM) into fixed mAb, equilibrated up to 64 h; free mAb captured on beads coated with Fc-fused PD-1; about 23 C; PBS pH 7.4 + 0.05% azide + 0.01% BSA; N-curve analysis; apparent
[4] = target: T1, Recombinant purified human PD-1 …; test: SPR; Biacore 8K, 3D-hydrogel chips (average of CM5 and CMD-200M); mAbs captured on goat anti-human IgG Fc; PD-1 His-tagged monomer analyte 0.4-100 nM; 25 C; HBS-EP+ pH 7.4; 1:1 Langmuir fit with mass transport; apparent
[5] = target: T1, Recombinant purified human PD-1 …; test: SPR; Biacore 8K, flat chips (average of C1 and CMD-P); mAbs captured on goat anti-human IgG Fc; PD-1 His-tagged monomer analyte 0.4-100 nM; 25 C; HBS-EP+ pH 7.4; 1:1 Langmuir fit with mass transport; apparent
[6] = target: T3, Recombinant purified human PD-1 protein, residues Leu25-Thr168, with a C-terminal 6-His tag (Homo sapiens, UniProt Q15116); test: KinExA; 'Kinetics, Direct' method, solution phase: mAb mixed with PD-1, free mAb probed repeatedly pre-equilibrium on PD-1-coupled PMMA beads, Alexa647 goat anti-human IgG detection; ka fitted (best fit, 95% CI), kd calculated from ka and KD
T3 construct: human PD-1 (programmed cell death protein 1), residues Leu25-Thr168; monomer; used as analyte in SPR and as titrant in KinExA; also called PD-1-His; PD-1-His monomer; source: bought: R&D Systems (catalog# 8986-PD, lot# DDJM0417041); not shown: His6, C-terminal, kept
T3 sequence (Q15116 25-168): as the sequence (Q15116 25-168) above

[7] = target: T3, Recombinant purified human PD-1 …; test: SPR; Carterra LSA, CMD-P (flat) chip; mAb captured by amine-coupled goat anti-human IgG Fc, PD-1-His as analyte 0.5-1000 nM, 5 min association, 20 min dissociation; run buffer with 0.5 mg/ml BSA; global 1:1 Langmuir fit; mean (stdev) of 8-12 spots per mAb; KD deduced from kd/ka; apparent

| Kd [1] | koff [1] | kon [1] | Kd [2] | Kd [3] | Kd [4] | Kd [5] | koff [6] | kon [6] | Kd [7] | koff [7] | kon [7] | Binder |
| --- | --- | --- | --- | --- | --- | --- | --- | --- | --- | --- | --- | --- |
| < 99 pM | < 4.3e-05 s⁻¹ | 430000 M⁻¹ s⁻¹ | 24 pM | 38 pM | 260 pM | 130 pM |  |  |  |  |  | mAb03 (analog of tislelizumab) (antibody, V domains shown, VH; IgG4 heavy-chain constant region with stabilizing 226CPPC hinge; VL; IgG4 analog; source: HEK293 suspension cells, cotransfected, purified (Protein A)) VH: QVQLQESGPGLVKPSETLSLTCTVSGFSLTSYGVHWIRQPPGKGLEWIGVIYADGSTNYNPSLKSRVTISKDTSKNQVSLKLSSVTAADTAVYYCARAYGNYWYIDVWGQGTTVTVSS VL: DIVMTQSPDSLAVSLGERATINCKSSESVSNDVAWYQQKPGQPPKLLINYAFHRFTGVPDRFSGSGYGTDFTLTISSLQAEDVAVYYCHQAYSSPYTFGQGTKLEIK |
|  |  |  |  |  |  |  | 6.82e-05 s⁻¹ | 1.8e+06 M⁻¹ s⁻¹ | < 100 pM | < 4.27e-05 s⁻¹ | 432000 M⁻¹ s⁻¹ | mAb03 (analog of tislelizumab) (antibody, V domains shown, VH; IgG4 heavy-chain constant region with a stabilizing 226CPPC hinge modification; IgG4; isotype-matched analog made from published variable regions, not the clinical molecule; source: HEK293 suspension cells, cotransfected, purified (Protein A)) VH: QVQLQESGPGLVKPSETLSLTCTVSGFSLTSYGVHWIRQPPGKGLEWIGVIYADGSTNYNPSLKSRVTISKDTSKNQVSLKLSSVTAADTAVYYCARAYGNYWYIDVWGQGTTVTVSS VL: DIVMTQSPDSLAVSLGERATINCKSSESVSNDVAWYQQKPGQPPKLLINYAFHRFTGVPDRFSGSGYGTDFTLTISSLQAEDVAVYYCHQAYSSPYTFGQGTKLEIK |
| 1500 pM | 0.00028 s⁻¹ | 190000 M⁻¹ s⁻¹ | 130 pM | 220 pM | 1900 pM | 820 pM |  |  |  |  |  | mAb23 (analog of cemiplimab) (antibody, V domains shown, VH; IgG4 heavy-chain constant region with stabilizing 226CPPC hinge; VL; IgG4 analog; source: HEK293 suspension cells, cotransfected, purified (Protein A)) VH: EVQLLESGGVLVQPGGSLRLSCAASGFTFSNFGMTWVRQAPGKGLEWVSGISGGGRDTYFADSVKGRFTISRDNSKNTLYLQMNSLKGEDTAVYYCVKWGNIYFDYWGQGTLVTVSS VL: DIQMTQSPSSLSASVGDSITITCRASLSINTFLNWYQQKPGKAPNLLIYAASSLHGGVPSRFSGSGSGTDFTLTIRTLQPEDFATYYCQQSSNTPFTFGPGTVVDFR |
|  |  |  |  |  |  |  | 0.00011 s⁻¹ | 502000 M⁻¹ s⁻¹ | 1520 pM | 0.000297 s⁻¹ | 195000 M⁻¹ s⁻¹ | mAb23 (analog of cemiplimab) (antibody, V domains shown, VH; IgG4 heavy-chain constant region with a stabilizing 226CPPC hinge modification; IgG4; isotype-matched analog made from published variable regions, not the clinical molecule; source: HEK293 suspension cells, cotransfected, purified (Protein A)) VH: EVQLLESGGVLVQPGGSLRLSCAASGFTFSNFGMTWVRQAPGKGLEWVSGISGGGRDTYFADSVKGRFTISRDNSKNTLYLQMNSLKGEDTAVYYCVKWGNIYFDYWGQGTLVTVSS VL: DIQMTQSPSSLSASVGDSITITCRASLSINTFLNWYQQKPGKAPNLLIYAASSLHGGVPSRFSGSGSGTDFTLTIRTLQPEDFATYYCQQSSNTPFTFGPGTVVDFR |
| 1600 pM | 0.00039 s⁻¹ | 240000 M⁻¹ s⁻¹ | 180 pM | 200 pM | 1700 pM | 870 pM |  |  |  |  |  | mAb16 (analog of dostarlimab) (antibody, V domains shown, VH; IgG4 heavy-chain constant region with stabilizing 226CPPC hinge; VL; IgG4 analog; source: HEK293 suspension cells, cotransfected, purified (Protein A)) VH: EVQLLESGGGLVQPGGSLRLSCAASGFTFSSYDMSWVRQAPGKGLEWVSTISGGGSYTYYQDSVKGRFTISRDNSKNTLYLQMNSLRAEDTAVYYCASPYYAMDYWGQGTTVTVSS VL: DIQLTQSPSFLSAYVGDRVTITCKASQDVGTAVAWYQQKPGKAPKLLIYWASTLHTGVPSRFSGSGSGTEFTLTISSLQPEDFATYYCQHYSSYPWTFGQGTKLEIK |
|  |  |  |  |  |  |  | 0.00013 s⁻¹ | 639000 M⁻¹ s⁻¹ | 1670 pM | 0.000421 s⁻¹ | 252000 M⁻¹ s⁻¹ | mAb16 (analog of dostarlimab) (antibody, V domains shown, VH; IgG4 heavy-chain constant region with a stabilizing 226CPPC hinge modification; IgG4; isotype-matched analog made from published variable regions, not the clinical molecule; source: HEK293 suspension cells, cotransfected, purified (Protein A)) VH: EVQLLESGGGLVQPGGSLRLSCAASGFTFSSYDMSWVRQAPGKGLEWVSTISGGGSYTYYQDSVKGRFTISRDNSKNTLYLQMNSLRAEDTAVYYCASPYYAMDYWGQGTTVTVSS VL: DIQLTQSPSFLSAYVGDRVTITCKASQDVGTAVAWYQQKPGKAPKLLIYWASTLHTGVPSRFSGSGSGTEFTLTISSLQPEDFATYYCQHYSSYPWTFGQGTKLEIK |
